This note sets out measurements from US20240409639A1 (published 2024).

In assay [1] the target is human FcRn. The assay can be described thus: BLI (Octet); pH 6.0. (In general: In BLI a coated tip is dipped into the sample, and binding shifts an interference pattern.)
The next assay addresses FcγRI. The assay can be described thus: BLI (Octet).
In another assay the target is PD-1 HIS. Briefly: BLI (Octet).
The next assay deals with ILT4 HIS. The assay can be described thus: BLI (Octet).
For a further assay, the target named is FcγRIIIa. Briefly: BLI (Octet).
Assay [2] deals with human FcRn. The assay can be described thus: BLI (Octet); pH 7.2.

B1: CDX-585 (bispecific antibody)
heavy: QVQLVQSGAEVVKPGASVKISCKASGYTFTDYVMHWVRQAPGQSLEWMGVISTYHIPAVYNQKFKGKATMTVDTSTSTVYLELSSLRSEDTAVYYCAREVYGESYYFDVWGQGTTVTVSSASTKGPSVFPLAPSSKSTSGGTAALGCLVKDYFPEPVTVSWNSGALTSGVHTFPAVLQSSGLYSLSSVVTVPSSSLGTQTYICNVNHKPSNTKVDKKVEPKSCDKTHTCPPCPAPEAQGGPSVFLFPPKPKDTLYITREPEVTCVVVDVSHEDPEVKFNWYVDGVEVHNAKTKPREEQYNSTYRVVSVLTVLHQDWLNGKEYKCQVSNKALPAPIEKTISKAKGQPREPQVYTLPPSRDELTKNQVSLTCLVKGFYPSDIAVEWESNGQPENNYKTTPPVLDSDGSFFLYSKLTVDKSRWQQGNVFSCSVMHEALHNHYTQKSLSLSPGKGSSGGGGSDIQMTQSPSSLSASVGDRVTITCRASENIYSYLAWYQQKPGKAPKFLVYNADTLAEGVPSRFSGSGSGTDFTLTISSLQPEDFATYYCQHHYGTPFTFGCGTKLEIKGGGGSGGGGSGGGGSGGGGSQVQLVQSGAEVKKPGASVKVSCKASGYSFTGYTMHWVRQAPGQCLEWMGLINPYTGGTDYNQKFQGRVTMTVDRSTSTAYMELSSLRSEDTAVYYCARERPGGSQFIYYYALDYWGQGTTVTVSS
light: DIVMTQTPLSLPVTPGEPASISCRSSQSIVHSAGNTYLEWYLQKPGQSPQLLIYKVSNRFSGVPDRFSGSGSGTDFTLKISRVEAEDVGVYYCFQGSHVPYTFGGGTKVEIKRTVAAPSVFIFPPSDEQLKSGTASVVCLLNNFYPREAKVQWKVDNALQSGNSQESVTEQDSKDSTYSLSSTLTLSKADYEKHKVYACEVTHQGLSSPVTKSFNRGEC
What is called Kd is a measure of binding affinity in units of concentration. A lower Kd goes with higher affinity. As for B1, the Kd was 2.99 nM with human FcRn [1]; 1380 nM in the assay with FcγRI; 0.063 nM in the assay with PD-1 HIS; 0.305 nM with ILT4 HIS; 4910 nM in the assay with FcγRIIIa; 114 nM in the assay with human FcRn [2].
